This note sets out measurements from publication PMC11382887, “Molecular mechanism of HNF-1A–mediated HNF4A gene regulation and promoter-driven HNF4A-MODY diabetes”.

Series [1] concerns the target T1, HNF-1A DD-DBD (HNF-1A 1-279) (UniProt P20823 1-279). In words: BLI; kinetic Kd (koff/kon); ITC: 20 mM HEPES pH 7.5, 200 mM NaCl, 1 mM TCEP, 30 C, 250 uM dsDNA into 50 uM protein; BLI: streptavidin sensor with BiotinTEG dsDNA, buffer not in material. The note with it: protein: recombinant; tags: His6 removed by TEV; chain copies: 2; label: 5' BiotinTEG on forward strand (BLI only); blunt.

In series [2] the target is T1, HNF-1A DD-DBD (HNF-1A 1-279). Briefly: ITC; ITC: 20 mM HEPES pH 7.5, 200 mM NaCl, 1 mM TCEP, 30 C, 250 uM dsDNA into 50 uM protein; BLI: streptavidin sensor with BiotinTEG dsDNA, buffer not in material. As to conditions: protein: recombinant; tags: His6 removed by TEV; chain copies: 2; label: 5' BiotinTEG on forward strand (BLI only); blunt. In general terms: Isothermal titration calorimetry measures the heat released or taken up as one component is titrated into another.

The target is the same in series [3]. In words: ITC; 2:1 protein:DNA stoichiometry; ITC: 20 mM HEPES pH 7.5, 200 mM NaCl, 1 mM TCEP, 30 C, 250 uM dsDNA into 50 uM protein; BLI: streptavidin sensor with BiotinTEG dsDNA, buffer not in material. As to conditions: protein: recombinant; tags: His6 removed by TEV; chain copies: 2; label: 5' BiotinTEG on forward strand (BLI only); blunt.
Series [4] shares this target. Briefly: ITC; text refers to ref 36; Methods also list RA among the titrations done here; ITC: 20 mM HEPES pH 7.5, 200 mM NaCl, 1 mM TCEP, 30 C, 250 uM dsDNA into 50 uM protein; BLI: streptavidin sensor with BiotinTEG dsDNA, buffer not in material. As to conditions: protein: recombinant; tags: His6 removed by TEV; chain copies: 2; label: 5' BiotinTEG on forward strand (BLI only); blunt.

The target is the same in series [5]. Briefly: ITC; increase vs WT not significant; ITC: 20 mM HEPES pH 7.5, 200 mM NaCl, 1 mM TCEP, 30 C, 250 uM dsDNA into 50 uM protein; BLI: streptavidin sensor with BiotinTEG dsDNA, buffer not in material. The note with it: protein: recombinant; tags: His6 removed by TEV; chain copies: 2; label: 5' BiotinTEG on forward strand (BLI only); blunt.
For series [6] the target is unchanged. Briefly: BLI; kinetic Kd (koff/kon); kon ~3x lower, koff ~3x higher; ITC: 20 mM HEPES pH 7.5, 200 mM NaCl, 1 mM TCEP, 30 C, 250 uM dsDNA into 50 uM protein; BLI: streptavidin sensor with BiotinTEG dsDNA, buffer not in material. As to conditions: protein: recombinant; tags: His6 removed by TEV; chain copies: 2; label: 5' BiotinTEG on forward strand (BLI only); blunt. For orientation: In BLI a coated tip is dipped into the sample, and binding shifts an interference pattern.

The target is the same in series [7]. In words: BLI; ITC: 20 mM HEPES pH 7.5, 200 mM NaCl, 1 mM TCEP, 30 C, 250 uM dsDNA into 50 uM protein; BLI: streptavidin sensor with BiotinTEG dsDNA, buffer not in material. The note with it: protein: recombinant; tags: His6 removed by TEV; chain copies: 2; label: 5' BiotinTEG on forward strand; blunt.

T1 sequence (P20823 1-279): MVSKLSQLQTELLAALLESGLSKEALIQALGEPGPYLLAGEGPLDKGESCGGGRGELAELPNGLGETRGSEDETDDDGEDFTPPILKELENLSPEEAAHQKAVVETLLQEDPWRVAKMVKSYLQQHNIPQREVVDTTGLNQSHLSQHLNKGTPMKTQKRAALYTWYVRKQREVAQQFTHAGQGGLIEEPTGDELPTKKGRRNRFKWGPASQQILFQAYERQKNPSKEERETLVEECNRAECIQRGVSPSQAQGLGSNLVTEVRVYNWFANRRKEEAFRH

B1: P2 -169C>T (dsDNA)
DNA 1: ACTGGTTACTCTTTAATGTAT
DNA 2: ATACATTAAAGAGTAACCAGT
One may read the Kd as the constant that tells how readily two partners part at equilibrium. Turning to B1, in series [1], the “Kd fold change vs P2 WT” value is about 5 fold Kd vs P2 WT. The dissociation constant Kd in series [2] was found to be 1200 nM.

B2: P2 WT (P2-HNF4A promoter) (dsDNA)
DNA 1: ACTGGTTACTCTTTAACGTAT
DNA 2: ATACGTTAAAGAGTAACCAGT
For the molecule B2, the Kd in series [3] is 304 ± 134 nM.

B3: RA (rat albumin promoter) (dsDNA)
DNA 1: CTTGGTTAATAATTCACCAGA
DNA 2: TCTGGTGAATTATTAACCAAG
With B3, in series [4], the equilibrium dissociation constant (Kd) stood at 100 ± 50 nM.

B4: P2 -181G>A (dsDNA)
DNA 1: ACTGATTACTCTTTAACGTAT
DNA 2: ATACGTTAAAGAGTAATCAGT
In the case of B4, the Kd in series [5] stood at 600 nM.

B5: P2 -181G>T (dsDNA)
DNA 1: ACTGTTTACTCTTTAACGTAT
DNA 2: ATACGTTAAAGAGTAAACAGT
In the case of B5, the binding signal in series [6] was about 10 fold Kd vs P2 WT. Further, the dissociation constant Kd in series [2] is 700 nM.

B6: Randomized sequence (dsDNA)
DNA 1: TCATCATATCATGCTATAAAT
DNA 2: ATTTATAGCATGATATGATGA
In the case of B6, the binding result in series [7] is listed as “no binding”.
